According to PMC3419727, “Identifying the Hotspots on the Top Faces of WD40-Repeat Proteins from Their Primary Sequences by β-Bulges and DHSW Tetrads” (PLoS ONE, 2012):

How the values were obtained:
Assay in all cases: ITC; Fep1 (~1.4 mM) injected, 2 µl each time, into Tup11 WT or mutant (~0.2 mM); 25°C; 1×PBS pH 7.4, 150 mM NaCl; iTC200 (MicroCal); Fep1 into buffer subtracted as background
Settings in all cases: both partners purified
[1] = target: T1, S. japonicus Tup11 WD40 domain (301–630) Ile601Ala (S. japonicus, UniProt B6JV84 301-630, Ile601Ala)
T1 construct: Tup11, S. japonicus, WD40 domain, amino acids 301-630
T1 sequence (looked up): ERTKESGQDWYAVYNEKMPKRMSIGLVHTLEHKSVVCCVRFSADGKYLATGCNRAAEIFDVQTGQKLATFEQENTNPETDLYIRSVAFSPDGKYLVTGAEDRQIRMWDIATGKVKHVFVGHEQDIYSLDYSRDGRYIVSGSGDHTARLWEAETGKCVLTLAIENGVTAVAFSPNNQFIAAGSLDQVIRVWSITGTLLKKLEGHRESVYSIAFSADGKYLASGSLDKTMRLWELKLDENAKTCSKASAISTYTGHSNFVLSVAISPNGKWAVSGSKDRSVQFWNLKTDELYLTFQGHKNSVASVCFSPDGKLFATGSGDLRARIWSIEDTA

[2] = target: T2, S. japonicus Tup11 WD40 domain (301–630) Phe557Ala (S. japonicus, UniProt B6JV84 301-630, Phe557Ala)
T2 construct: Tup11, S. japonicus, WD40 domain, amino acids 301-630
T2 sequence (looked up): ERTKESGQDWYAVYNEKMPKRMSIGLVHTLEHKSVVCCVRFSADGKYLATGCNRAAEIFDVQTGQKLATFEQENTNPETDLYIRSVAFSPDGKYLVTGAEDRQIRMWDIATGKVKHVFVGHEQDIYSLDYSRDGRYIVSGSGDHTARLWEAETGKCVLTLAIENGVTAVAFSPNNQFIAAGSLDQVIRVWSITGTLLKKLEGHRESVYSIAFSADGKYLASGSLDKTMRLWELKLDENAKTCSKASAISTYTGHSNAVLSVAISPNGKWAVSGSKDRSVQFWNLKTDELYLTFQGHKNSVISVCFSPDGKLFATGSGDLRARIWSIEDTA

[3] = target: T3, S. japonicus Tup11 WD40 domain (301–630) Tyr382Ala (S. japonicus, UniProt B6JV84 301-630, Tyr382Ala)
T3 construct: Tup11, S. japonicus, WD40 domain, amino acids 301-630
T3 sequence (looked up): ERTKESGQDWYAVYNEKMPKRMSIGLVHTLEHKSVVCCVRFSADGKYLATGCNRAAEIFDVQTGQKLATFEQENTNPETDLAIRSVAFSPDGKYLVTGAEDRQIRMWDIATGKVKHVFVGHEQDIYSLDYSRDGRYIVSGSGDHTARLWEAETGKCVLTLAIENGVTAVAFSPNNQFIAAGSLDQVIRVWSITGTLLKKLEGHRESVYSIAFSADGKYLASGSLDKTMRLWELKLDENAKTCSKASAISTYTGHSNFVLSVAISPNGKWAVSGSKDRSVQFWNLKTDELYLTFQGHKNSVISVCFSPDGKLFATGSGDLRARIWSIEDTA

[4] = target: T4, S. japonicus Tup11 WD40 domain (301–630) Thr467Ala (S. japonicus, UniProt B6JV84 301-630, Thr467 substituted by Ala)
T4 construct: Tup11, S. japonicus, WD40 domain, amino acids 301-630
T4 sequence (looked up): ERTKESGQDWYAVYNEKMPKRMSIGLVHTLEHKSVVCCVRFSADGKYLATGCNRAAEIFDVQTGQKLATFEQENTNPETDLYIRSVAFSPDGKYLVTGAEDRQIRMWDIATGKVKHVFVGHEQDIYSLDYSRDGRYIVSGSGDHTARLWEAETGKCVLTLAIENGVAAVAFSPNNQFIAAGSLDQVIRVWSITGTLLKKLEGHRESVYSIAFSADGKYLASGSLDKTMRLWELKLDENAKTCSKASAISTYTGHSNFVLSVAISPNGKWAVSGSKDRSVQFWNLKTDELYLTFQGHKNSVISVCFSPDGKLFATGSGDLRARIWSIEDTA

[5] = target: T5, S. japonicus Tup11 WD40 domain (301–630) Tyr508Ala (S. japonicus, UniProt B6JV84 301-630, Tyr508 substituted by Ala)
T5 construct: Tup11, S. japonicus, WD40 domain, amino acids 301-630
T5 sequence (looked up): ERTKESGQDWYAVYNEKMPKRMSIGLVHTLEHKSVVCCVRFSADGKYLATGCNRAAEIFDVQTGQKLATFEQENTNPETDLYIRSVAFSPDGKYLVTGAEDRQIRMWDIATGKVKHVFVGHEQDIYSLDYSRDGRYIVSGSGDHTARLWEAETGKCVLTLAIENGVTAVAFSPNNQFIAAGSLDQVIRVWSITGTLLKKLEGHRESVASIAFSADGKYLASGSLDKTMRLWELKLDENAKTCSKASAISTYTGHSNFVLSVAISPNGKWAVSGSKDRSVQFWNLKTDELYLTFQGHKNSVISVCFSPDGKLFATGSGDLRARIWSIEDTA

B1: C-terminal region of S. pombe Fep1 (amino acids 319–564) (domain or fragment, UniProt Q10134 319-564, looked up)
chain: AAGEPDNNGKVYYSYGPTQEQSILPLPENKHEGLPPYQNEYVPNGIRANQVVYPGQLVAVGNDSSKQLSESTTSNTDNNGVATANQSNPLGMKFHLPPILPVGESVCLPPRTSAKPRIAEGIASLLNPEEPPSNSDKQPSMSNGPKSEVSPSQSQQAPLIQSSTSPVSLQFPPEVQGSNVDKRNYALNVLSQLRSQHDLMIQELHNLNQHIQQIDEWLRSSDNENMASEHIKSSTPAVVASGALQT
notes: Fep1, GATA-factor, S. pombe, C-terminal region, amino acids 319-564
- binding result [1]: binds
- binding result [2]: binds
- reduction of binding free energy against wild type [3]: ~1.7 kcal/mol
- binding result [4]: binds
- binding result [5]: binds
